Values belong to the molecule of their own block, whether it stands above or below them.
What was measured:
Flag-FUS-R521H (human) = Flag-FUS-R521H (human) (UniProt P35637); test: proximity ligation; PLA of Flag vs XRCC1, LigIII or PARP-1 in GO-treated SH-SY5Y cells expressing Flag-tagged WT or R521H FUS
[1] = biological target: T1, PARP-1, His-tag protein, purified (human, UniProt P09874 1-1014); test: pull-down; GST-FUS with the partner at 4 C overnight on glutathione affinity gel, washed three times with TEN buffer (20 mM Tris-HCl pH 7.4, 0.1 mM EDTA, 100 mM NaCl), immunoblot; for XRCC1 also in the presence of PARP-1 and NAD+ (PARylation enhanced the interaction); details: both partners purified
T1 construct: human PARP1, recombinant; also called human PARP1 purified protein; source: expressed as His-tag protein, purified (Ni-agarose column, cation exchange)

[2] = biological target: XRCC1/LigIII complex, purified from insect cells (UniProt P18887 1-633; P49916 88-1009); test: cell-based or functional assay
Sequence of XRCC1/LigIII complex, purified from insect cells (P18887 whole entry, chain 1 of 2): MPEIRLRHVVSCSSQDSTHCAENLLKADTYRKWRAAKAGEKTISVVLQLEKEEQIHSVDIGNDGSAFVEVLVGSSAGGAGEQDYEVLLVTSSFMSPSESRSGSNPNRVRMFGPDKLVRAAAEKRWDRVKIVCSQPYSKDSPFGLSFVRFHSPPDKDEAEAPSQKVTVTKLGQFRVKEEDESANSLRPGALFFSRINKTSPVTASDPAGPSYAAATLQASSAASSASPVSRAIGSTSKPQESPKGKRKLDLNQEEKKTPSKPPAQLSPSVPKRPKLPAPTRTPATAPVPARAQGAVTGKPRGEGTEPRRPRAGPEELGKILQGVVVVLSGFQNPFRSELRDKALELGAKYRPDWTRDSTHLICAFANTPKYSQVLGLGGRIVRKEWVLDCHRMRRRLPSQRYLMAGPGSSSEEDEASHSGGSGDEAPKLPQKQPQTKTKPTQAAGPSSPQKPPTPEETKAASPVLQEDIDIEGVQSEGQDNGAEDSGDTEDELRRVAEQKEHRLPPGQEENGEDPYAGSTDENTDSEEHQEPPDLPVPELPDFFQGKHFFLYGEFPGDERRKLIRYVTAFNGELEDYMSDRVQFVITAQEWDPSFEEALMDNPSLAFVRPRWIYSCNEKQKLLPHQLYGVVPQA
Sequence of XRCC1/LigIII complex, purified from insect cells (P49916 88-1009, chain 2 of 2): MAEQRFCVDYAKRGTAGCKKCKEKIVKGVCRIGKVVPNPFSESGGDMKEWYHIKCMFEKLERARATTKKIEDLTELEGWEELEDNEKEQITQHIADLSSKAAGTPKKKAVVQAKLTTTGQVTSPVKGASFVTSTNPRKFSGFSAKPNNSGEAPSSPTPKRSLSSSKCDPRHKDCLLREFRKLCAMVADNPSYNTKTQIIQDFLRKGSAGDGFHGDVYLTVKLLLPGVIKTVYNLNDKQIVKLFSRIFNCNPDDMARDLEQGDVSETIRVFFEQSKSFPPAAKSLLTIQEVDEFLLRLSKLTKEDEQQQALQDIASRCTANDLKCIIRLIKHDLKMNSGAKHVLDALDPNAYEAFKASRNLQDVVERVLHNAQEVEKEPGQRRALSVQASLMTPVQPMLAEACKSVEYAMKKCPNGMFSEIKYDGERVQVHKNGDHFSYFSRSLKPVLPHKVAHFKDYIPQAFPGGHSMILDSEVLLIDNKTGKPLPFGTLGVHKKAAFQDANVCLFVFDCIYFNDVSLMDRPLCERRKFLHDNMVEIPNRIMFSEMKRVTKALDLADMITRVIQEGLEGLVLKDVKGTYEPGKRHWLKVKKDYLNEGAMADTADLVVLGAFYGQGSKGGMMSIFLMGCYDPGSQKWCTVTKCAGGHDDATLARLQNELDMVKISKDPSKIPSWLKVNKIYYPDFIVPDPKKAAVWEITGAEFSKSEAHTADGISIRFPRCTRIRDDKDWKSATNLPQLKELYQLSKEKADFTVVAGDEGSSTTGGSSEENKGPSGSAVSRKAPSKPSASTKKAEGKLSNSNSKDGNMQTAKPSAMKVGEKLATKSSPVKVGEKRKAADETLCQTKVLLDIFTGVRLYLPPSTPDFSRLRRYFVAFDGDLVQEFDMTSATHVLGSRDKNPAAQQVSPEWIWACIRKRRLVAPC

T1 sequence (P09874 whole entry): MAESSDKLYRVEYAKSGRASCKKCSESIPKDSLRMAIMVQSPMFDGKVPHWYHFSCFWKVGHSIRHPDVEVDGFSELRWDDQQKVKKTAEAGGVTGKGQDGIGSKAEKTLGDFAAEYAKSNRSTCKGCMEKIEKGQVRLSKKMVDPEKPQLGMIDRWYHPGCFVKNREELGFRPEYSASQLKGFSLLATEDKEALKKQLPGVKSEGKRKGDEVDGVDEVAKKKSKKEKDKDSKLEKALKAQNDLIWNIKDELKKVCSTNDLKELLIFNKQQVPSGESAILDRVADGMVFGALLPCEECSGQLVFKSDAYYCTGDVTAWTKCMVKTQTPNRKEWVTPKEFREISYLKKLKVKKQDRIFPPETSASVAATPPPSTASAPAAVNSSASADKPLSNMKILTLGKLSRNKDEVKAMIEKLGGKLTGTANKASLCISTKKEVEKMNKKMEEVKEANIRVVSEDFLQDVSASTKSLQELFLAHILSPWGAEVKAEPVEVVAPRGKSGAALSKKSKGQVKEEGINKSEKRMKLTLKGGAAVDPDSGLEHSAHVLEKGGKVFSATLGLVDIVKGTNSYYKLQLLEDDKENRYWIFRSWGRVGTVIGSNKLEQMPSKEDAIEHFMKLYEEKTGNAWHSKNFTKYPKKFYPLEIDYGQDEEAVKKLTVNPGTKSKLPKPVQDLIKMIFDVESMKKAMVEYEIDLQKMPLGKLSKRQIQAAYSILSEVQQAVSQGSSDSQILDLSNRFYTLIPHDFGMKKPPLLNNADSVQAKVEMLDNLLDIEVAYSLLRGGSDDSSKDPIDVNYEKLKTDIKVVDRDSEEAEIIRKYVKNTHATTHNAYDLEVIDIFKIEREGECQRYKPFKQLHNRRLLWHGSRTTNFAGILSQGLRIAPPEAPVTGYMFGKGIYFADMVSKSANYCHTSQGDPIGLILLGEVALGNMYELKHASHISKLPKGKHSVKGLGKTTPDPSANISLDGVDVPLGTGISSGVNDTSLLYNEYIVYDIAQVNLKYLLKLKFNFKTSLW

- percent reduction of PLA association against WT FUS (Flag-FUS-R521H (human)): > 80%
Molecule: DNA Ligase IIIalpha (LigIII), endogenous (from UniProt P49916 43-1009) (enzyme)

- binding result [1]: binds
- catalytic efficiency of LigIII in the nick ligation reaction of XRCC1/LigIII with or without FUS [2]: 4 fold
- in vitro DNA nick ligation by XRCC1/LigIII complex (100 f.moles) with FUS 10-500 f.moles; fold change in ligated product [2]: ~5 fold
B1: GST-FUS (natural protein, human, UniProt P35637 1-526, looked up)
chain: MASNDYTQQATQSYGAYPTQPGQGYSQQSSQPYGQQSYSGYSQSTDTSGYGQSSYSSYGQSQNTGYGTQSTPQGYGSTGGYGSSQSSQSSYGQQSSYPGYGQQPAPSSTSGSYGSSSQSSSYGQPQSGSYSQQPSYGGQQQSYGQQQSYNPPQGYGQQNQYNSSSGGGGGGGGGGNYGQDQSSMSSGGGSGGGYGNQDQSGGGGSGGYGQQDRGGRGRGGSGGGGGGGGGGYNRSSGGYEPRGRGGGRGGRGGMGGSDRGGFNKFGGPRDQGSRHDSEQDNSDNNTIFVQGLGENVTIESVADYFKQIGIIKTNKKTGQPMINLYTDRETGKLKGEATVSFDDPPSAKAAIDWFDGKEFSGNPIKVSFATRRADFNRGGGNGRGGRGRGGPMGRGGYGGGGSGGGGRGGFPSGGGGGGGQQRAGDWKCPNPTCENMNFSWRNECNQCKAPKPDGPGGGPGGSHMGGNYGDDRRGGRGGYDRGGYRGRGGDRGGFRGGRGGGDRGGFGPGKMDSRGEHRQDRRERPY
notes: FUS in pGEX6P-1, plasmid purchased from Addgene; The FUS of the ligation assays is named only 'purified FUS'; also called purified FUS; recombinant FUS; source: E. coli BL21, purified (glutathione-Sepharose 4B)
